Values quoted from earlier work as cited in article PMC3138048.

Biological target: Lys199 (UniProt position 223, AKQRLKCASLQ)
Experiment: chemical modification

## Human serum albumin (HSA) (Homo sapiens)
  pKa: 7.9
